Source: PMC3937519

Assays:
[1] = molecular target: Vif V25A-CBF-β-Elo B/C complex (HIV-1 NL4.3 | human | not stated) (UniProt Q13951); test: ITC
[2] = molecular target: Vif H108A-CBF-β-Elo B/C complex (HIV-1 NL4.3 | human | not stated) (UniProt Q13951); test: ITC
[3] = molecular target: Vif H27A-CBF-β-Elo B/C complex (HIV-1 NL4.3 | human | not stated) (UniProt Q13951); test: ITC
[4] = molecular target: wild-type Vif-CBF-β-Elo B/C complex (HIV-1 NL4.3 | human | not stated) (UniProt Q13951); test: ITC
[5] = molecular target: HIV-1 NL4.3 Vif Y30A, recombinant (E. coli) (HIV-1 NL4.3); test: pull-down
[6] = molecular target: HIV-1 NL4.3 Vif H27A, recombinant (E. coli) (HIV-1 NL4.3); test: pull-down
[7] = molecular target: HIV-1 NL4.3 Vif M29A, recombinant (E. coli) (HIV-1 NL4.3); test: pull-down
[8] = molecular target: HIV-1 NL4.3 Vif H28A, recombinant (E. coli) (HIV-1 NL4.3); test: pull-down

Row | Substance | Kd [1] [nM] | Kd [2] [nM] | dH [2] [kcal/mol] | Kd [3] [nM] | Kd [4] [nM] | dH [4] [kcal/mol] | percent reduction of Cul5 binding against wild-type Vif [5] [%] | percent reduction of Cul5 binding against wild-type Vif [6] [%] | percent reduction of Cul5 binding against wild-type Vif [7] [%] | percent reduction of Cul5 binding against wild-type Vif [8] [%]
1 | Cul5-NTD (residues 1 to 393, V341R, L345D) (from UniProt Q93034 1-393) (domain or fragment) | 511 | 36 | -4 | 660 | 5.9 | -9 |  |  |  | 
2 | N-terminal Cul5, co-expressed in E. coli (Cul5/Vif pET-Duet) (domain or fragment) |  |  |  |  |  |  | > 60 | > 60 | > 60 | 20
